Results taken from the nanobody polyreactivity screen of Harvey et al. (2022).

Assay: yeast display, Sf9 membrane polyspecificity reagent, FACS + sequencing; frameworks hold sequencing errors
Procedure, shortened: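 Nanobodies from a synthetic yeast display library (Saccharomyces cerevisiae BJ5465), induced 36–48 hours with galactose, were stained 1 hour at 4 °C with 10% biotinylated, detergent-solubilized Sf9 membrane reagent, enriched on streptavidin microbeads, then FACS-sorted. Anti-HA (expression) and streptavidin (reagent binding) fluorescence set low and high (top ~1%) gates. Polyreactivity labels come from the gate of origin. Genes were colony-PCR amplified, MiSeq 2 × 250 sequenced and filtered by CDR length.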

Sequence | polyreactivity (PSR sort gate)
QFQLVESGGGLVQAGGSLRLSCAASGSTFTPYDMGWYRQAPGKERELVAVITGSDGTYYADSVKGRFTISRDNAKNTVYLQMNSLKPEDTAVYYCATDWTFGRWSTLGVEMDYWGQGTQVTVSS | low polyreactivity
QVQLVESGGGLVQAGGSLRISCAPSGSNINAYAIGWYRQSTGKERELVARITRGDGTTYYADSVKGRFTISRDNAMNTVYLQMNRLKPEDNAVYYCNRVEYYSVWGYDYWVQGTQVTVSS | low polyreactivity
QVQLVESGGGLVQAGGSLRLSCAASGSTFIYYAMGWYRQAPGKEREFVAAISYRGGSTYYADSVKGRFTISRDNAKNTVYLQMNSLKPEDTAVYYCAASYRKWNDYWGQGTQVNVSS | high polyreactivity
QVQLVESGGGLVQAGGSLRLSCAASGSIFVYNDMGWYRPAPGKERELVAGIDWSGDRTYADSVKGRFTISRDNAKNTVYLQMNSLKPEDTAVYYCNADEWRWDEIIPYAVDYWGQGTQVTVSS | low polyreactivity
QVQLVESGGGLVQAGGSLRLSCAASGRIFRVYAMGWYRQAPGKERELVAAITRGGSTYYADSVKGRFTISRDNAKNTVYLQMNSLKPEDTAVYYCAARTWHRYDYWGQGTQVTVSS | high polyreactivity
QVHLVESGGGLVQAGGSLRLICAASGGTLWVNTMGWYRQAPGKERELVAAISRRGGSTYYADSVKGRFTISRDNAKNTVYLQMNSLKPEDTAVYYCAKGYSSHYWWAYDSWGQGTQVTVSS | high polyreactivity
QVQLVESGGGLVQAGGSLRLSCAASGSIFSWNAMGWYRQAPGKERELVAGITWSGGGTSYADSVKGRFTISRDNAKNTVYLQMNSLKPEDTAVYYCAKEWIFDFNYWGQGTQVTVSS | low polyreactivity
QVQLVESGGGLVQAGGSLRLSCAASGSIFPVYAMGWYRQAPGKERELVATITGSGDSTYADSVKGRFTISRDNAKNTVYLQMNSLKPEDTAVYYCAATTDRAEDDDNIGGYWGQGTQVTVSS | low polyreactivity
QVQLVESGGGLVQAGGSLRLSCAASGRTFKYYAMGWYRQAPGKERELVASISRSGGITYYADSVKGRFTISRDNAKNTVYLQMNSLKPEDTAVYYCAARYSVRPISIYPFDFGYWGQGTQVTVSS | low polyreactivity
QVQLVESGGGLVQAGGSLRLSCAASGFIFGSYALGWDRQAPGKEWELVAAINYDGGSTYYADSVKGRFTISRDHAKNTVYLQMNSLKPEDTAVYYCAADLYYTHMDYWGQGTQVTVSS | low polyreactivity
QVQLIESGGGLVQAGGSLRLSCAASGSTFERNTMGWYRQAPGKERELVAAITSGGRTYYADSVKGRFTISRDNAKNTVYLQMNSLKPEDTAVYYCAARLGRHVSYWRSGWTNMDYWGQGTQVTVSS | high polyreactivity
QVQLVVSGGGLVQAGGILRFSCAASGRTIWYNAMGWYRQAPGKERELVASISRSGGSTYYADSVKGRFTISRDNAKNTVYLQMNSLKPEDTAVYYCAAESFDYTTWYGYWGQGTQVTVSS | high polyreactivity
QVQLVESGGGLVQAGGSLRLSCAASGSIFNYNDMGWYRQAPGKERELVAAIDSSGTSTYYADSVKGRFTISRDNAKNTVYLQMNSLKPEDTAVYYCNADSSLGFGYWGQGTQVTVSS | low polyreactivity
QVQLVESGGGLVQAGGSLRLSCAASGRIFRYYAMGWYRQAPGKERELVARISWSGGDTYYADSVKGRFTISRDNAKNTVYLQMNSLKPEDTAVYYCNAEAWYSVEYDYWGQGTQVTVSS | low polyreactivity
QVQLVESGGGLVQAGGSLRLSCPASGRTFSSYAMGWYRPAPGKERELVAAISRRGGSTYYADSVKGRFTISRDNAKNTVYLKMNSLKPEDTAVYYCAADVYKQYGYYYWGQGSQVTVSS | high polyreactivity
QVQLVESGGGLVQARGSLRLSSAASRSTFNVYAMGWYRQAPGKERELVAGIRDSDGSTNYADSVKGRFTISRDNAKNTVYLQMNSLKPEDTAVYYCAADLYDINWSVWLDYWGQGTQVTVSS | low polyreactivity

Sequence | polyreactivity (PSR sort gate)
QVQLVESGGGIVQAGGSLRLSCAASGNAMGWYRQAPGKERELVASINRSGGRTYYADSVKGRFTISRDNAKNTVYLQMNSLKPEDTAVYYCAARPHYDSDYWGQGTQVTVSS | low polyreactivity
QVQLVESGGGLVQAGGSLRLSCAASGITFYPYAMGWYRQAPGKERELVASISWSGGSTYYADSVKGRFTISRDNAKNTVYLQMNSLKPEDTAVFYCNAEYWLPYYPDYDYWGQGTQVTVSS | low polyreactivity
QDQLVESGGGLVQAGGSLRLSCAASGRIIQYYDMGWYRQAPGKERELVAAITSNGGRTYYADSVKGRFTISRDNAKNTVFLLMNILKPEDTAVYYCAKTFDFSAYPPLTLKYGYWGQGTQVTVSS | high polyreactivity
QVQLEESGGGLVQAGGSLRLSCAASGRTSRSYTMGWYRQAPGKERELVAAITRGGRTYYADSVKGRFTISRDNANNTVYLQMNSLKPEDTAVYYCDTVRVQSYGYWGQGTQVTVSS | low polyreactivity
QVQLVESGGGLVQAGGSLRLSCAASGSTFIPNAMGWYRQAPGKERELVAAITYRGGRTYYADSVKGRFTISRDNAKYTVYLQLNSLKPEDTAVYYCAADFWYNQVRFYYWGQGTQVTVSS | high polyreactivity
QVQLVESGGGLVQAGGSLRLSCAASGRTSFWNAMGWYRQAPGKERELVSAISASVGRTYYADSVKGRFTISRDNAKNTVYLQMNSLKPEDTAVYYSAKVYHAGTGYPSLGLDYWGQGTQVTVSS | low polyreactivity
QVQLVESGGGLVQAGGSLRLSCAASGSTFGRKAMAWYRQAPGKEMELVAVISKSGGSTYYADTVKGRFTISRDNAKNTVYLQMNSLKPEDTAVYYCAASLKYRRRMGYWGQGTQVTVSS | high polyreactivity
QVQLVESGGGLVQAGGSLSLSCAASGSTFYGYAMGWYRQAPGKERELVAAITRSGGSTYYADSVKGRFTISRDNAKNTVYLQMNSLTPEDTAVYYCAAERLYYYVYWGQGTQVTVSS | low polyreactivity
QVQLVESGGGLVQAGGRLRLSCAASGSSFVAYTMGWYRQAPGKERELVAAISRGGSTNYADSVKGRFTISRDNAKNTVYLQMNSLKPEDTAVYYCAAKVWDGQLLYYWGQGTQVTVSS | low polyreactivity
QVQLHESGGGLVQAGGSLRLSCAASGTISYAGPMGWYRQAPGKEREFVAGIGVGSNTNYADSVKGRYTIIRDNAKNTVYLQMNSLQPEDTAVYYCAVGGFAPLGRPYWGQGTQVTVSS | low polyreactivity
QVQLVESGGGLVQAGGSLRLTCAASGNIFSTYAMGWYRQAPGKERELVASISENGGSTYYADSVKGRFSISRDNAKTTVYLQMNSLKPEHTAVYYCNKDYYYPNSWPKYVYWGQGTQVTLSS | low polyreactivity
QVQLVESGGGLVQAGGSLRLSCAASGSTFNGYAMGWYRQAPGKERELVAAISKRGGSTYYADSVKGRFTISRDNAKNTVYLQMNSLKPEETAVYYCAARVGRTYTVVWWSHYNYWGQGTQVTVSS | high polyreactivity
QVQLVESGGGLVQAGGSLRLSCAASGRTLVKNAMGWYRQAPGKERELVAAISTSGGRTYYADSVKGRFTISRDNAKNTVYLQMNSLKPEDTAVYYCAAVLYATRPVYGFDSWGQGTQVTVSS | high polyreactivity
QVQLQESGGGPVLAGGSLRLSCEASGTIFVRLDMGWYRQAPGKEREFVATIGSGSSTYYADSVKGSFTISRDNVKNTVYLQMNSLKPEETAVYYCAVSAAEQSRHYYWDQGTQVTVSS | low polyreactivity
QVQLVESGGGLVQAGGSLRLSCAASGIIFYYNGMGWYRQAPGKERELVAAISGDGSTNYADSVKGRFTISRDNAKNTVYLQMNSLKPEDTAVYYCNADDIFRPRDDLYDYWGQGTQVTVSS | low polyreactivity
QVQLVESGGGLVQAGGSLRLSCAASGIIFYKYAMGWYRQAPGKERELVAAITGRGGSTYYADSVKGRFTISRDNAKNTVYLRMNSLKPEDTAVYFCAASQRSGHPSYDYWGQGTQVTVSS | high polyreactivity
